± gives the uncertainty stated by the source.
B1: Transcription elongation factor A N-terminal and central domain-containing protein, residues 30 to 77; numbered along this chain, Q8N8B7 (parent)
chain: LTELETIYVTKEHLQETDVVRAVYRVLKNCPSVALKKKAKCLLSKWKA

Variants of: B1
Assay: abundance fitness (aPCA) (normalised: wild type 0, dead -1); higher = more abundant; growth selection in yeast, the domain comes from the species named
Conditions: Homo sapiens

| Variant | abundance fitness |
| --- | --- |
| LTELETIYVTKEHLQETDVVRAVYRVLKNCPSVALKKKAKGLLSKWKA [C41G] | 0.025 ± 0.083 |
| LTELETIYVTKEHLQETDVVRAVYRVLKNCPSVALKKKAKHLLSKWKA [C41H] | 0.239 ± 0.12 |
| LTELETIYVTKEHLQETDVVRAVYRVLKNCPSVALKKKAKILLSKWKA [C41I] | -0.202 ± 0.47 |
| LTELETIYVTKEHLQETDVVRAVYRVLKNCPSVALKKKAKKLLSKWKA [C41K] | 0.171 ± 0.13 |
| LTELETIYVTKEHLQETDVVRAVYRVLKNCPSVALKKKAKLLLSKWKA [C41L] | 0.047 ± 0.097 |
| LTELETIYVTKEHLQETDVVRAVYRVLKNCPSVALKKKAKMLLSKWKA [C41M] | -0.232 ± 0.18 |
| LTELETIYVTKEHLQETDVVRAVYRVLKNCPSVALKKKAKNLLSKWKA [C41N] | 0.268 ± 0.38 |
| LTELETIYVTKEHLQETDVVRAVYRVLKNCPSVALKKKAKPLLSKWKA [C41P] | -1.22 ± 0.26 |
| LTELETIYVTKEHLQETDVVRAVYRVLKNCPSVALKKKAKQLLSKWKA [C41Q] | 0.293 ± 0.14 |
| LTELETIYVTKEHLQETDVVRAVYRVLKNCPSVALKKKAKRLLSKWKA [C41R] | 0.167 ± 0.09 |
| LTELETIYVTKEHLQETDVVRAVYRVLKNCPSVALKKKAKSLLSKWKA [C41S] | 0.093 ± 0.11 |
| LTELETIYVTKEHLQETDVVRAVYRVLKNCPSVALKKKAKTLLSKWKA [C41T] | -0.073 ± 0.21 |
| LTELETIYVTKEHLQETDVVRAVYRVLKNCPSVALKKKAKVLLSKWKA [C41V] | 0.042 ± 0.087 |
| LTELETIYVTKEHLQETDVVRAVYRVLKNCPSVALKKKAKYLLSKWKA [C41Y] | -0.558 ± 0.16 |
| LTELETIYVTKEHLQETDVVRAVYRVLKNCPSVALKKKAKCALSKWKA [L42A] | -0.689 ± 0.11 |
| LTELETIYVTKEHLQETDVVRAVYRVLKNCPSVALKKKAKCCLSKWKA [L42C] | -0.839 ± 0.36 |
| LTELETIYVTKEHLQETDVVRAVYRVLKNCPSVALKKKAKCDLSKWKA [L42D] | -0.894 ± 0.19 |
| LTELETIYVTKEHLQETDVVRAVYRVLKNCPSVALKKKAKCELSKWKA [L42E] | -0.993 ± 0.2 |
| LTELETIYVTKEHLQETDVVRAVYRVLKNCPSVALKKKAKCFLSKWKA [L42F] | -0.174 ± 0.14 |
| LTELETIYVTKEHLQETDVVRAVYRVLKNCPSVALKKKAKCGLSKWKA [L42G] | -1.05 ± 0.12 |
| LTELETIYVTKEHLQETDVVRAVYRVLKNCPSVALKKKAKCHLSKWKA [L42H] | -1.02 ± 0.45 |
| LTELETIYVTKEHLQETDVVRAVYRVLKNCPSVALKKKAKCILSKWKA [L42I] | -0.283 ± 0.18 |
| LTELETIYVTKEHLQETDVVRAVYRVLKNCPSVALKKKAKCKLSKWKA [L42K] | -1.13 ± 0.23 |
| LTELETIYVTKEHLQETDVVRAVYRVLKNCPSVALKKKAKCMLSKWKA [L42M] | -0.203 ± 0.17 |
| LTELETIYVTKEHLQETDVVRAVYRVLKNCPSVALKKKAKCNLSKWKA [L42N] | -0.871 ± 0.26 |
| LTELETIYVTKEHLQETDVVRAVYRVLKNCPSVALKKKAKCPLSKWKA [L42P] | -1.01 ± 0.35 |
| LTELETIYVTKEHLQETDVVRAVYRVLKNCPSVALKKKAKCQLSKWKA [L42Q] | -0.791 ± 0.25 |

| Variant | abundance fitness |
| --- | --- |
| LTELETIYVTKEHLQETDVVRAVYRVLKNCPSVALKKKAKCSLSKWKA [L42S] | -0.77 ± 0.12 |
| LTELETIYVTKEHLQETDVVRAVYRVLKNCPSVALKKKAKCTLSKWKA [L42T] | -0.703 ± 0.2 |
| LTELETIYVTKEHLQETDVVRAVYRVLKNCPSVALKKKAKCVLSKWKA [L42V] | -0.354 ± 0.086 |
| LTELETIYVTKEHLQETDVVRAVYRVLKNCPSVALKKKAKCWLSKWKA [L42W] | -0.026 ± 0.098 |
| LTELETIYVTKEHLQETDVVRAVYRVLKNCPSVALKKKAKCYLSKWKA [L42Y] | -0.737 ± 0.28 |
| LTELETIYVTKEHLQETDVVRAVYRVLKNCPSVALKKKAKCLASKWKA [L43A] | -0.787 ± 0.15 |
| LTELETIYVTKEHLQETDVVRAVYRVLKNCPSVALKKKAKCLCSKWKA [L43C] | -0.647 ± 0.21 |
| LTELETIYVTKEHLQETDVVRAVYRVLKNCPSVALKKKAKCLDSKWKA [L43D] | -0.829 ± 0.19 |
| LTELETIYVTKEHLQETDVVRAVYRVLKNCPSVALKKKAKCLESKWKA [L43E] | -0.915 ± 0.23 |
| LTELETIYVTKEHLQETDVVRAVYRVLKNCPSVALKKKAKCLFSKWKA [L43F] | 0.047 ± 0.12 |
| LTELETIYVTKEHLQETDVVRAVYRVLKNCPSVALKKKAKCLGSKWKA [L43G] | -1.12 ± 0.14 |
| LTELETIYVTKEHLQETDVVRAVYRVLKNCPSVALKKKAKCLKSKWKA [L43K] | -1.04 ± 0.24 |
| LTELETIYVTKEHLQETDVVRAVYRVLKNCPSVALKKKAKCLMSKWKA [L43M] | -0.138 ± 0.15 |
| LTELETIYVTKEHLQETDVVRAVYRVLKNCPSVALKKKAKCLPSKWKA [L43P] | -0.789 ± 0.29 |
| LTELETIYVTKEHLQETDVVRAVYRVLKNCPSVALKKKAKCLQSKWKA [L43Q] | -0.527 ± 0.14 |
| LTELETIYVTKEHLQETDVVRAVYRVLKNCPSVALKKKAKCLRSKWKA [L43R] | -0.889 ± 0.11 |
| LTELETIYVTKEHLQETDVVRAVYRVLKNCPSVALKKKAKCLSSKWKA [L43S] | -1.04 ± 0.18 |
| LTELETIYVTKEHLQETDVVRAVYRVLKNCPSVALKKKAKCLTSKWKA [L43T] | -1.05 ± 0.21 |
| LTELETIYVTKEHLQETDVVRAVYRVLKNCPSVALKKKAKCLVSKWKA [L43V] | -0.272 ± 0.084 |
| LTELETIYVTKEHLQETDVVRAVYRVLKNCPSVALKKKAKCLWSKWKA [L43W] | 0.127 ± 0.087 |
| LTELETIYVTKEHLQETDVVRAVYRVLKNCPSVALKKKAKCLYSKWKA [L43Y] | -0.256 ± 0.22 |
| LTELETIYVTKEHLQETDVVRAVYRVLKNCPSVALKKKAKCLLAKWKA [S44A] | -0.232 ± 0.11 |
| LTELETIYVTKEHLQETDVVRAVYRVLKNCPSVALKKKAKCLLCKWKA [S44C] | -0.73 ± 0.15 |
| LTELETIYVTKEHLQETDVVRAVYRVLKNCPSVALKKKAKCLLDKWKA [S44D] | -0.537 ± 0.18 |
| LTELETIYVTKEHLQETDVVRAVYRVLKNCPSVALKKKAKCLLEKWKA [S44E] | -0.262 ± 0.17 |
| LTELETIYVTKEHLQETDVVRAVYRVLKNCPSVALKKKAKCLLFKWKA [S44F] | -0.158 ± 0.13 |
| LTELETIYVTKEHLQETDVVRAVYRVLKNCPSVALKKKAKCLLGKWKA [S44G] | -0.141 ± 0.1 |
